Square brackets hold non-standard residues; d marks the D form. Ends that are not written are not given here. 2Nal = N[C@@H](Cc1ccc2ccccc2c1)C(=O)O; d2Nal = N[C@H](Cc1ccc2ccccc2c1)C(=O)O; 2Thi = N[C@@H](Cc1cccs1)C(=O)O; Cha = N[C@@H](CC1CCCCC1)C(=O)O; d2Thi = N[C@H](Cc1cccs1)C(=O)O; dCha = N[C@H](CC1CCCCC1)C(=O)O
Target: GST-XIAP (human, UniProt P98170 1-497)
Assay: cell-based or functional assay

GST-XIAP, sequence (P98170 whole entry): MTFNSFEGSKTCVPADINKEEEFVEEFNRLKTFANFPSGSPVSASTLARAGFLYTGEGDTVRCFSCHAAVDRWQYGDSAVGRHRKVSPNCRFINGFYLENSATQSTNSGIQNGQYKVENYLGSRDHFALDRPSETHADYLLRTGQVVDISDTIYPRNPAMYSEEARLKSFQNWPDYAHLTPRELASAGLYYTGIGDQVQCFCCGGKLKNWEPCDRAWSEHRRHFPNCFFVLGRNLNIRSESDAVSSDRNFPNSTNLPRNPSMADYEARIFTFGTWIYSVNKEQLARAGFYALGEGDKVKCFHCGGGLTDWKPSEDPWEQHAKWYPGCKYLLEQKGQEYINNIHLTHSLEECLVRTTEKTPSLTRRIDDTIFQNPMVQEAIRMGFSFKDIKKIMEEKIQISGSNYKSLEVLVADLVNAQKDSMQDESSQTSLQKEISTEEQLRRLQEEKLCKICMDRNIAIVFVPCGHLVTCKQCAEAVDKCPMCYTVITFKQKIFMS

| Molecule | ratio of Vmax with and without peptide, caspase derepression assay |
| --- | --- |
| AWW[2Thi] (also: some Trp may retain formyl protecting groups) [TPI 1332/1352-1] | > 2.4 |
| A[dW]W[2Thi] [TPI 1332/1352-47] | > 2.4 |
| [Cha][d2Nal]W[2Thi] [TPI 1332-41] | > 2.4 |
| A[dW]W[2Thi] [TPI 1352-6] | > 2.4 |
| [2Nal][dCha]W[dW] [TPI 1352-66] | > 2.4 |
| [2Nal][d2Thi][dF][dW] [TPI 1352-72] | > 2.4 |

Target: GST-BIR3RING (human) (UniProt P98170)
Sequence (P98170 243-497): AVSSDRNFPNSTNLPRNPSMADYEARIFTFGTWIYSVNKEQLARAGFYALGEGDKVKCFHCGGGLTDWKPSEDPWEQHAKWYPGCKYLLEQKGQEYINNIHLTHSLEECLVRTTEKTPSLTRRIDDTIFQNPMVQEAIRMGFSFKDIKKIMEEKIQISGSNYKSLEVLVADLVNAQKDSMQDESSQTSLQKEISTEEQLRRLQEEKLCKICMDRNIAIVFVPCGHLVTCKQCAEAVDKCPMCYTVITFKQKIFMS
Assay: fluorescence polarization competition; unlabeled SMAC 0 to 50 µM against 400 nM rhodamine-SMAC and 1 µM GST-BIR3RING

| Molecule | IC50 [µM] |
| --- | --- |
| unlabelled SMAC (peptide) | 21 |
